The values that follow come from patent US20040176301A1.

Square brackets hold non-standard residues; d marks the D form. Phe(3-F) = N[C@@H](Cc1cccc(F)c1)C(=O)O; Phe(4-F) = N[C@@H](Cc1ccc(F)cc1)C(=O)O; Tic = O=C(O)[C@@H]1Cc2ccccc2CN1; Cha = N[C@@H](CC1CCCCC1)C(=O)O; Phe(ol) = N[C@H](CO)Cc1ccccc1; Phg = N[C@H](C(=O)O)c1ccccc1; Nle = CCCC[C@H](N)C(=O)O; Nva = CCC[C@H](N)C(=O)O; Abu = CC[C@H](N)C(=O)O Bounds are passed on as bounds.

Cyclin D1, sequence (P24385 whole entry): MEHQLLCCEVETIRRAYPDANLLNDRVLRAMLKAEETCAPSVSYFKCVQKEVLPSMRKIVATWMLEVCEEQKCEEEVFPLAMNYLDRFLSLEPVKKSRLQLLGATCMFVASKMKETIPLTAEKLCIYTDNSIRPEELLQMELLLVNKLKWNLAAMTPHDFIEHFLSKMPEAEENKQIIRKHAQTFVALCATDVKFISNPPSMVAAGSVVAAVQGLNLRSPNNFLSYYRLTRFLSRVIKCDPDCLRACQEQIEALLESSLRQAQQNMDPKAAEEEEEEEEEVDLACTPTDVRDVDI

One experiment addresses Cyclin A (UniProt P20248). The experiment can be described thus: cyclin A binding assay, IC50 (immobilised ligand not given).
Conditions: not given
In the case of Ac-Arg-Arg-Leu-Asn-Phe-NH2 (peptide), the concentration for half-maximal inhibition (IC50) was determined as 8.15 µM.

A further experiment deals with Cyclin A (UniProt P20248). Description: competitive ELISA: cyclin A binding to immobilised biotinyl-Ahx-HAKRRLIF-NH2.
Conditions: not given
As to H-FAKRRLIF-NH2, the Relative activity, Cyclin A Binding (relative to HAKRRLIF-NH2) worked out at 1.

For the substance “H-Dab-Ala-Lys-Arg-Arg-Leu-Ile Phe-NH2 (peptide)”, the Relative activity, Cyclin A Binding (relative to HAKRRLIF-NH2) came out at 0.4.

Take “H-Hse-Ala-Lys-Arg-Arg-Leu-Ile Phe-NH2 (peptide)”: the Relative activity, Cyclin A Binding (relative to HAKRRLIF-NH2) was 2.

In turn, “H-Pya-Ala-Lys-Arg-Arg-Leu-Ile Phe-NH2 (peptide)” had a Relative activity, Cyclin A Binding (relative to HAKRRLIF-NH2) of 0.2.

The substance “H-Thi-Ala-Lys-Arg-Arg-Leu-Ile Phe-NH2 (peptide)” had a Relative activity, Cyclin A Binding (relative to HAKRRLIF-NH2) of 0.2.

H-AAKRRLIF-NH2 displayed a Relative activity, Cyclin A Binding (relative to HAKRRLIF-NH2) of 2.5.

A further experiment addresses Cyclin D1 (UniProt P24385). Description: competitive ELISA: cyclin D1 binding to immobilised biotinyl-Ahx-p21(149-159).
Conditions: not given
A general note: An ELISA detects its analyte on a solid surface through an enzyme-linked reagent.
With “P21 N-terminus-LIF hybrid KAURRLIF-NH2 (peptide)”, the IC50 amounted to 20 µM.

With P21 N-terminus peptide KAURRLFG-NH2, the IC50 was found to be 134 µM.

For the substance “P27 peptide H-Ser-Ala-Abu-Arg-Asn-Leu-Phe-Gly-NH2”, the IC50 was > 200 µM.

A further experiment addresses Cyclin A (UniProt P20248). The experiment can be described thus: competitive cyclin A binding ELISA; competitor: immobilised biotinyl-Ahx-HAKRRLIF-NH2; at 100 µM test peptide.
Conditions: not given
For the substance H-Arg-Leu-Ile-Phe-NH2 (peptide), the Maximum Inhibition (%) is 50%.

In turn, H-Asn-Leu-Phe-Gly-NH2 (peptide) displayed a Maximum Inhibition (%) of 80%.

Another experiment deals with Cyclin A (UniProt P20248). The experiment can be described thus: competitive cyclin A binding ELISA; competitor: immobilised biotinyl-Ahx-His-Ala-Lys-Arg-Arg-Leu-Ile-Phe-NH2 (SEQ ID No. 186). The conditions noted are these: scale: relative to H-His-Ala-Lys-Arg-Arg-Leu-Ile-Phe-NH2.
“H-His-Ala-Lys-Cit-Arg-Leu-Ile-Phe-NH2 (peptide)” came in with a Relative activity, Cyclin A Binding of 0.2.

Turning to H-HAKRRLI[Cha]-NH2, the Relative activity, Cyclin A Binding was < 0.1.

On to H-H[Phg]KRRLIF-NH2, for which the Relative activity, Cyclin A Binding is < 0.1.

H-HARRRLIF-NH2 registered a Relative activity, Cyclin A Binding of 1.5.

As to H-HAKQRLIF-NH2, the Relative activity, Cyclin A Binding was < 0.1.

H-HAKRRLVF-NH2 showed a Relative activity, Cyclin A Binding of 1.5.

With “H-His-Ser-Lys-Arg-Arg-Leu-Ile-L-Pse-OH (peptide)”, the Relative activity, Cyclin A Binding is < 0.1.

As for H-H[Abu]KRRLIF-NH2, the Relative activity, Cyclin A Binding was determined as 1.3.

The substance H-HAARRLIF-NH2 displayed a Relative activity, Cyclin A Binding of 0.5.

For “H-His-Ala-Lys-Arg-Aib-Leu-Ile-Phe-NH2 (peptide)”, the Relative activity, Cyclin A Binding is < 0.1.

Take H-HAKKRLIF-NH2: the Relative activity, Cyclin A Binding came out at 0.1.

As for “H-His-Ala-Lys-Arg-Sar-Leu-Ile-Phe-NH2 (peptide)”, the Relative activity, Cyclin A Binding is < 0.1.

Regarding H-HAKRR[Nva]IF-NH2, the Relative activity, Cyclin A Binding is < 0.1.

As to “H-His-Ser-Lys-Arg-Arg-Leu-Ile-Pheol (peptide)”, the Relative activity, Cyclin A Binding is < 0.1.

In the case of “H-His-Ala-Lys-Nle-Arg-Leu-Ile-Phe-NH2 (peptide)”, the Relative activity, Cyclin A Binding is < 0.1.

Turning to “H-His-Bug-Lys-Arg-Arg-Leu-Ile-Phe-NH2 (peptide)”, the Relative activity, Cyclin A Binding was 1.2.

With H-HAKRRL[Nle]F-NH2, the Relative activity, Cyclin A Binding was 0.3.

Regarding H-HAKRR[Nle]IF-NH2, the Relative activity, Cyclin A Binding is < 0.1.

H-HAKRRLAF-NH2 had a Relative activity, Cyclin A Binding of 0.8.

H-HAKRRLFF-NH2 yielded a Relative activity, Cyclin A Binding of 0.4.

For the substance H-HAKRRLI[Phe(3-F)]-NH2, the Relative activity, Cyclin A Binding came out at 0.8.

H-HA[Nle]RRLIF-NH2: the Relative activity, Cyclin A Binding was 0.2.

H-HAKRRLI[Phe(4-F)]-NH2 returned a Relative activity, Cyclin A Binding of 5.

Regarding H-HAKRRLI[Tic]-NH2, the Relative activity, Cyclin A Binding is < 0.1.

Regarding “H-His-Ala-Lys-Arg-Arg-Leu-Ile-L-Pse-OH (peptide)”, the Relative activity, Cyclin A Binding came out at 0.2.

As to “H-His-Ser-Lys-Arg-Arg-Leu-Ile-D-Pse-OH (peptide)”, the Relative activity, Cyclin A Binding is < 0.1.

For the substance H-HAKRPLIF-NH2, the Relative activity, Cyclin A Binding was < 0.1.

Take H-HALRRLIF-NH2: the Relative activity, Cyclin A Binding is 1.4.

In the case of “H-His-Ala-Lys-Hse-Arg-Leu-Ile-Phe-NH2 (peptide)”, the Relative activity, Cyclin A Binding was < 0.1.

Consider H-HAKRRLLF-NH2, for which the Relative activity, Cyclin A Binding is 0.6.

As for H-HAKRSLIF-NH2, the Relative activity, Cyclin A Binding was found to be 0.2.

As to H-HAKRRLI[Phe(ol)], the Relative activity, Cyclin A Binding stood at 1.

With H-HVKRRLIF-NH2, the Relative activity, Cyclin A Binding amounted to 1.7.

Take H-HAKRRLIY-NH2: the Relative activity, Cyclin A Binding came out at 0.2.

H-HAKRRL[Nva]F-NH2 returned a Relative activity, Cyclin A Binding of 0.6.

Regarding “H-His-Ala-Lys-Arg-Arg-Leu-Ile-Hof-NH2 (peptide)”, the Relative activity, Cyclin A Binding was < 0.1.

As for H-HAKRRLIW-NH2, the Relative activity, Cyclin A Binding was determined as 0.1.

H-HAKRRIIF-NH2 displayed a Relative activity, Cyclin A Binding of 0.2.

Turning to H-HAKRRLIL-NH2, the Relative activity, Cyclin A Binding was < 0.1.

Turning to “H-His-Ala-Lys-Arg-Arg-Leu-Ile-1Nap-NH2 (peptide)”, the Relative activity, Cyclin A Binding was < 0.1.

Consider H-H[Nva]KRRLIF-NH2, for which the Relative activity, Cyclin A Binding is < 0.1.

Take H-HAKRRLIK-NH2: the Relative activity, Cyclin A Binding was < 0.1.

As for H-HAKRRVIF-NH2, the Relative activity, Cyclin A Binding was < 0.1.

“H-His-Ala-Lys-Arg-Arg-Leu-Ile-2Nap-NH2 (peptide)” gave a Relative activity, Cyclin A Binding of 0.7.

Substance “H-His-Ala-Lys-Arg-Arg-Leu-1Nap-Phe-NH2 (peptide)” displayed a Relative activity, Cyclin A Binding of 0.5.

Take H-HAKRALIF-NH2: the Relative activity, Cyclin A Binding is < 0.1.

In turn, H-HA[Abu]RRLIF-NH2 came in with a Relative activity, Cyclin A Binding of 0.2.

As for H-HAKRRLF-NH2, the Relative activity, Cyclin A Binding is < 0.1.

Consider H-HAKRRL[Cha]F-NH2, for which the Relative activity, Cyclin A Binding came out at 0.5.

Consider H-HIKRRLIF-NH2, for which the Relative activity, Cyclin A Binding is 0.2.

As for H-HFKRRLIF-NH2, the Relative activity, Cyclin A Binding was 0.2.

On to H-HAKRRFIF-NH2, for which the Relative activity, Cyclin A Binding was < 0.1.

In turn, H-HGKRRLIF-NH2 registered a Relative activity, Cyclin A Binding of 0.1.

As for H-HAKARLIF-NH2, the Relative activity, Cyclin A Binding is < 0.1.

As to H-HAKRNLIF-NH2, the Relative activity, Cyclin A Binding was < 0.1.

Consider H-HAKRR[Cha]IF-NH2, for which the Relative activity, Cyclin A Binding is < 0.1.

“H-His-Ala-Lys-Arg-Arg-Leu-Ile-Dhp-OH (peptide)” returned a Relative activity, Cyclin A Binding of 0.2.

On to “H-His-Ala-Lys-Arg-Arg-1Nap-Ile-Phe-NH2 (peptide)”, for which the Relative activity, Cyclin A Binding was < 0.1.

In turn, “H-His-Ala-Lys-Arg-Arg-Leu-Ile-D-Pse-OH (peptide)” showed a Relative activity, Cyclin A Binding of 0.1.

In general, IC50 refers to the concentration that gives 50% inhibition.
